These results are taken from the supplement of paper PMC9112550, “Optimization of the antimicrobial peptide Bac7 by deep mutational scanning” (BMC Biology, 2022).

For the data set, the system named is Escherichia coli TOP10. The data set can be described thus: shrunken log2 fold change of peptide-encoding DNA abundance (4.5 h post-induction vs induction); higher = less antimicrobial activity (less host growth inhibition). The conditions noted are these: time post-induction: 4.5 h; library: site-saturation at positions 5, 18, 19, 20.
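Also: peptides expressed intracellularly from a pBAD plasmid library in pooled LB shake-flask culture, induced with 0.3% L-arabinose, DNA abundance read by NGS, three biological replicates, DESeq2 with apeglm shrinkage.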

RRIRLRPPRLPRPRPRPCRSPRP: the “shrunken log2 fold change” value was -0.0599. Next, RRIRQRPPRLPRPRPRPPVWPRP: 0.223; RRIRVRPPRLPRPRPRPYYRPRP: -0.309. Next, RRIRKRPPRLPRPRPRPMDEPRP: 0.966. Next, RRIRNRPPRLPRPRPRPVIDPRP: -0.123; RRIRCRPPRLPRPRPRPAAFPRP: 0.292.

On to RRIRMRPPRLPRPRPRPKPLPRP, for which the “shrunken log2 fold change” value turned out to be 0.603. RRIRHRPPRLPRPRPRPGWKPRP: the “shrunken log2 fold change” value was determined as 0.0976. Next, RRIRLRPPRLPRPRPRPCVEPRP: -0.124; RRIRLRPPRLPRPRPRPTRFPRP: 0.42; RRIRQRPPRLPRPRPRPVRRPRP: -0.00994. For RRIRLRPPRLPRPRPRPSMCPRP, the “shrunken log2 fold change” value was -0.196. Under RRIRERPPRLPRPRPRPYRPPRP stands -0.41; under RRIRWRPPRLPRPRPRPPYWPRP, 0.204. In the case of RRIRERPPRLPRPRPRPLPCPRP, the “shrunken log2 fold change” value is -0.315. Under RRIRSRPPRLPRPRPRPLNGPRP stands -0.322; under RRIRPRPPRLPRPRPRPKNVPRP, -0.169; under RRIRKRPPRLPRPRPRPVQNPRP, 0.49. Next, RRIRSRPPRLPRPRPRPNRCPRP: 0.173. Regarding RRIRTRPPRLPRPRPRPLTPPRP, the “shrunken log2 fold change” value was -0.0473.

As for RRIRWRPPRLPRPRPRPLNEPRP, the “shrunken log2 fold change” value was -0.0646. Next, RRIRLRPPRLPRPRPRPVLMPRP: -0.04. Next, RRIRKRPPRLPRPRPRPETWPRP: 0.0991; RRIRGRPPRLPRPRPRPFLRPRP: -0.0587.

In the case of RRIRVRPPRLPRPRPRPDNDPRP, the “shrunken log2 fold change” value was -0.232. Next, RRIRSRPPRLPRPRPRPIKTPRP: 0.000501; RRIRMRPPRLPRPRPRPCNEPRP: -0.249; RRIRDRPPRLPRPRPRPQRDPRP: 0.0917. Under RRIRTRPPRLPRPRPRPMCFPRP stands 0.0222; under RRIRSRPPRLPRPRPRPAIEPRP, 0.00515. Next, RRIRKRPPRLPRPRPRPTIIPRP: -0.0974. In the case of RRIRSRPPRLPRPRPRPENAPRP, the “shrunken log2 fold change” value was -0.231.

As for RRIRWRPPRLPRPRPRPTRLPRP, the “shrunken log2 fold change” value turned out to be 0.411. Next, RRIRFRPPRLPRPRPRPPTNPRP: 0.236; RRIRWRPPRLPRPRPRPTFRPRP: -0.0799; RRIRNRPPRLPRPRPRPYDYPRP: -0.129. For the sequence RRIRERPPRLPRPRPRPDDDPRP, the “shrunken log2 fold change” value amounted to 0.00371. As for RRIRRRPPRLPRPRPRPRVPPRP, the “shrunken log2 fold change” value was 0.745. Next, RRIRLRPPRLPRPRPRPWLPPRP: -0.464. On to RRIRTRPPRLPRPRPRPSMRPRP, for which the “shrunken log2 fold change” value was -0.107. Next, RRIRGRPPRLPRPRPRPVYDPRP: 0.32. Next, RRIRCRPPRLPRPRPRPHPLPRP: 0.989; RRIRPRPPRLPRPRPRPKPLPRP: 0.567.

As to RRIRIRPPRLPRPRPRPKMTPRP, the “shrunken log2 fold change” value was found to be 0.123. Under RRIRNRPPRLPRPRPRPQERPRP stands 0.0235. For RRIRKRPPRLPRPRPRPFGEPRP, the “shrunken log2 fold change” value worked out at 0.365. Under RRIRVRPPRLPRPRPRPVKRPRP stands 0.0275; under RRIRRRPPRLPRPRPRPSYWPRP, -0.0367; under RRIRCRPPRLPRPRPRPPTEPRP, 1.77. Next, RRIRKRPPRLPRPRPRPHEIPRP: 0.704; RRIRARPPRLPRPRPRPVHTPRP: 0.375. Under RRIRHRPPRLPRPRPRPASSPRP stands 0.0164; under RRIRERPPRLPRPRPRPEAQPRP, 0.227; under RRIRDRPPRLPRPRPRPVILPRP, -0.146. RRIRERPPRLPRPRPRPQHFPRP: the “shrunken log2 fold change” value came out at 0.131.

Turning to RRIRRRPPRLPRPRPRPSRNPRP, the “shrunken log2 fold change” value turned out to be 0.453.

As for RRIRCRPPRLPRPRPRPQHCPRP, the “shrunken log2 fold change” value is -0.287. Next, RRIRTRPPRLPRPRPRPGEQPRP: 0.15. Next, RRIRVRPPRLPRPRPRPIGPPRP: -0.0936. Consider RRIRSRPPRLPRPRPRPFLLPRP, for which the “shrunken log2 fold change” value was -0.411. Regarding RRIRARPPRLPRPRPRPQRIPRP, the “shrunken log2 fold change” value was 0.177. For RRIRTRPPRLPRPRPRPNRRPRP, the “shrunken log2 fold change” value worked out at 0.0696. For RRIRTRPPRLPRPRPRPFMTPRP, the “shrunken log2 fold change” value was -0.12. Next, RRIRTRPPRLPRPRPRPAGYPRP: 0.138.

Turning to RRIRCRPPRLPRPRPRPGMSPRP, the “shrunken log2 fold change” value is 0.0961. Next, RRIRIRPPRLPRPRPRPNYSPRP: -0.937; RRIRDRPPRLPRPRPRPKLHPRP: 0.464. Turning to RRIRQRPPRLPRPRPRPERMPRP, the “shrunken log2 fold change” value is 0.0275. Under RRIRSRPPRLPRPRPRPCRDPRP stands -0.0619; under RRIRRRPPRLPRPRPRPPKHPRP, 0.39; under RRIRYRPPRLPRPRPRPRGIPRP, -0.0542. Next, RRIRSRPPRLPRPRPRPLINPRP: -0.0856; RRIRIRPPRLPRPRPRPLETPRP: -0.0471. Next, RRIRVRPPRLPRPRPRPRYKPRP: -0.131; RRIRERPPRLPRPRPRPSGHPRP: -0.289. Regarding RRIRWRPPRLPRPRPRPRELPRP, the “shrunken log2 fold change” value came out at 0.642. Next, RRIRMRPPRLPRPRPRPLEEPRP: 3.36; RRIRYRPPRLPRPRPRPVNVPRP: -0.0979; RRIRLRPPRLPRPRPRPTCMPRP: -0.228. Next, RRIRDRPPRLPRPRPRPMIHPRP: 0.318. For RRIRDRPPRLPRPRPRPYSGPRP, the “shrunken log2 fold change” value is -0.035. Under RRIRFRPPRLPRPRPRPEWFPRP stands 0.0431.

As to RRIRARPPRLPRPRPRPCPDPRP, the “shrunken log2 fold change” value is -0.161. Under RRIRRRPPRLPRPRPRPGTTPRP stands 0.462; under RRIRTRPPRLPRPRPRPQLQPRP, -0.0711; under RRIRQRPPRLPRPRPRPNYQPRP, -0.491. For the sequence RRIRVRPPRLPRPRPRPAWDPRP, the “shrunken log2 fold change” value worked out at 0.258. Next, RRIRNRPPRLPRPRPRPPHHPRP: -0.11. Consider RRIRQRPPRLPRPRPRPANRPRP, for which the “shrunken log2 fold change” value is -0.0467.

On to RRIRDRPPRLPRPRPRPLSNPRP, for which the “shrunken log2 fold change” value is -0.247. Under RRIRGRPPRLPRPRPRPHTFPRP stands -0.0226; under RRIRHRPPRLPRPRPRPYYEPRP, 0.0317; under RRIRYRPPRLPRPRPRPKAYPRP, 0.00787. Take RRIRDRPPRLPRPRPRPGFHPRP: the “shrunken log2 fold change” value came out at 0.0294. For the sequence RRIRLRPPRLPRPRPRPWNNPRP, the “shrunken log2 fold change” value was -0.225. Take RRIRGRPPRLPRPRPRPGACPRP: the “shrunken log2 fold change” value is 0.911. Next, RRIRMRPPRLPRPRPRPRWLPRP: 0.459. On to RRIRQRPPRLPRPRPRPLEIPRP, for which the “shrunken log2 fold change” value is -0.106. Turning to RRIRTRPPRLPRPRPRPSIKPRP, the “shrunken log2 fold change” value was -0.556.

For RRIRIRPPRLPRPRPRPLVIPRP, the “shrunken log2 fold change” value was -1.46. With RRIRCRPPRLPRPRPRPGDLPRP, the “shrunken log2 fold change” value is -0.314.

Turning to RRIRHRPPRLPRPRPRPINGPRP, the “shrunken log2 fold change” value was -0.437. Under RRIRCRPPRLPRPRPRPCEAPRP stands -0.369. Under RRIRNRPPRLPRPRPRPCTFPRP stands -0.0494; under RRIRVRPPRLPRPRPRPQMMPRP, -0.0693.

On to RRIRDRPPRLPRPRPRPDLWPRP, for which the “shrunken log2 fold change” value was -0.0295. Regarding RRIRVRPPRLPRPRPRPQEDPRP, the “shrunken log2 fold change” value is -0.467. Next, RRIRPRPPRLPRPRPRPPLQPRP: 0.327; RRIRGRPPRLPRPRPRPWPKPRP: 0.199.

Take RRIRWRPPRLPRPRPRPDFCPRP: the “shrunken log2 fold change” value turned out to be 0.247. Next, RRIRDRPPRLPRPRPRPQAKPRP: -0.0241; RRIRSRPPRLPRPRPRPPDLPRP: 0.543. Under RRIRARPPRLPRPRPRPQYLPRP stands -0.204; under RRIRKRPPRLPRPRPRPQSHPRP, 0.353. For RRIRSRPPRLPRPRPRPDRFPRP, the “shrunken log2 fold change” value was -0.0456. Next, RRIRMRPPRLPRPRPRPQHCPRP: -0.458; RRIRPRPPRLPRPRPRPHYKPRP: -0.874. Under RRIRNRPPRLPRPRPRPQWAPRP stands -0.188; under RRIRGRPPRLPRPRPRPAPIPRP, 0.586; under RRIRHRPPRLPRPRPRPMNKPRP, -0.329. Under RRIRERPPRLPRPRPRPAKTPRP stands -0.244; under RRIRPRPPRLPRPRPRPGLEPRP, 0.195. As to RRIRTRPPRLPRPRPRPYIAPRP, the “shrunken log2 fold change” value is -0.476. In the case of RRIRWRPPRLPRPRPRPHPYPRP, the “shrunken log2 fold change” value was -0.195. Under RRIRNRPPRLPRPRPRPNRDPRP stands -0.0094.
